Data: IntAct's records for PubMed 31515488

B1: "N-acyl-aromatic-L-amino acid amidohydrolase (carboxylate-forming)" (Homo sapiens), Q96HD9 (parent)
chain: MCSLPVPREPLRRVAVTGGTHGNEMSGVYLARHWLHAPAELQRASFSAVPVLANPAATSGCRRYVDHDLNRTFTSSFLNSRPTPDDPYEVTRARELNQLLGPKASGQAFDFVLDLHNTTANMGTCLIAKSSHEVFAMHLCRHLQLQYPELSCQVFLYQRSGEESYNLDSVAKNGLGLELGPQPQGVLRADIFSRMRTLVATVLDFIELFNQGTAFPAFEMEAYRPVGVVDFPRTEAGHLAGTVHPQLQDRDFQPLQPGAPIFQMFSGEDLLYEGESTVYPVFINEAAYYEKGVAFVQTEKFTFTVPAMPALTPAPSPAS
partner: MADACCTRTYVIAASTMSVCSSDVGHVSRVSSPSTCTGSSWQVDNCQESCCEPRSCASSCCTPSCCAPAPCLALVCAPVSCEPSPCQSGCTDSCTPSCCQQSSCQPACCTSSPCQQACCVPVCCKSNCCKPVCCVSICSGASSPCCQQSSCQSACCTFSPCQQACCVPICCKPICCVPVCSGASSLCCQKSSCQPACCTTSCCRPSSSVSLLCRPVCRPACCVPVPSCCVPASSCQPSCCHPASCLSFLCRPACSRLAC
B2: Peroxisomal biogenesis factor 19 (Homo sapiens), P40855 (parent)
chain: MAAAEEGCSVGAEADRELEELLESALDDFDKAKPSPAPPSTTTAPDASGPQKRSPGDTAKDALFASQEKFFQELFDSELASQATAEFEKAMKELAEEEPHLVEQFQKLSEAAGRVGSDMTSQQEFTSCLKETLSGLAKNATDLQNSSMSEEELTKAMEGLGMDEGDGEGNILPIMQSIMQNLLSKDVLYPSLKEITEKYPEWLQSHRESLPPEQFEKYQEQHSVMCKICEQFEAETPTDSETTQKARFEMVLDLMQQLQDLGHPPKELAGEMPPGLNFDLDALNLSGPPGASGEQCLIM
partner: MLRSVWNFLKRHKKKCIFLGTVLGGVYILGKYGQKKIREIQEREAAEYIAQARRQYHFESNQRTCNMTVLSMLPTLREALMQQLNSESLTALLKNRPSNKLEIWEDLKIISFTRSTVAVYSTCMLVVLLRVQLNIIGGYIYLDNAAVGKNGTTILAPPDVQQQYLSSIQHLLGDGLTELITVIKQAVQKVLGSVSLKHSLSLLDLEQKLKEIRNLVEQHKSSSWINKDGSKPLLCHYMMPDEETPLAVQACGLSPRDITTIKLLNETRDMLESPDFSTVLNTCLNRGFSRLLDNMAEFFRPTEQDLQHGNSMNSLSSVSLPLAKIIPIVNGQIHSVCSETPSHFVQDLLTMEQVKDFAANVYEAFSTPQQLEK
B3: Asparagine synthetase [glutamine-hydrolyzing] (Homo sapiens), P08243 (parent)
chain: MCGIWALFGSDDCLSVQCLSAMKIAHRGPDAFRFENVNGYTNCCFGFHRLAVVDPLFGMQPIRVKKYPYLWLCYNGEIYNHKKMQQHFEFEYQTKVDGEIILHLYDKGGIEQTICMLDGVFAFVLLDTANKKVFLGRDTYGVRPLFKAMTEDGFLAVCSEAKGLVTLKHSATPFLKVEPFLPGHYEVLDLKPNGKVASVEMVKYHHCRDVPLHALYDNVEKLFPGFEIETVKNNLRILFNNAVKKRLMTDRRIGCLLSGGLDSSLVAATLLKQLKEAQVQYPLQTFAIGMEDSPDLLAARKVADHIGSEHYEVLFNSEEGIQALDEVIFSLETYDITTVRASVGMYLISKYIRKNTDSVVIFSGEGSDELTQGYIYFHKAPSPEKAEEESERLLRELYLFDVLRADRTTAAHGLELRVPFLDHRFSSYYLSLPPEMRIPKNGIEKHLLRETFEDSNLIPKEILWRPKEAFSDGITSVKNSWFKILQEYVEHQVDDAMMANAAQKFPFNTPKTKEGYYYRQVFERHYPGRADWLSHYWMPKWINATDPSARTLTHYKSAVKA
partner: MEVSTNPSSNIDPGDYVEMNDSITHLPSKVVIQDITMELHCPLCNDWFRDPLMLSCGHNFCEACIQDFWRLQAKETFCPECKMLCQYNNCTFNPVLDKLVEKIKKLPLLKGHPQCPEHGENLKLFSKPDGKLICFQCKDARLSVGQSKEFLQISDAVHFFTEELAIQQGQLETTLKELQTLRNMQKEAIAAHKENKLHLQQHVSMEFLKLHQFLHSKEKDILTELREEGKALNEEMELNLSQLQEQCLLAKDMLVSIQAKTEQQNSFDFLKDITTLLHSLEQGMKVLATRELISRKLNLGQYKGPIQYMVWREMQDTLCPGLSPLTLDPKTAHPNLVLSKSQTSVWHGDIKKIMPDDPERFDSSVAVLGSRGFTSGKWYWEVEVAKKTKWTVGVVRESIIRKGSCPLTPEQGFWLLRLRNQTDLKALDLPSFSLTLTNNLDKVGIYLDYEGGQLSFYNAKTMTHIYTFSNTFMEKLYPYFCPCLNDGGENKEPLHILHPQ
B4: Protein SSX3 (Homo sapiens), Q99909 (parent)
chain: MNGDDTFARRPTVGAQIPEKIQKAFDDIAKYFSKEEWEKMKVSEKIVYVYMKRKYEAMTKLGFKAILPSFMRNKRVTDFQGNDFDNDPNRGNQVQRPQMTFGRLQGIFPKIMPKKPAEEGNVSKEVPEASGPQNDGKQLCPPGKPTTSEKINMISGPKRGEHAWTHRLRERKQLVIYEEISDPEEDDE
partner: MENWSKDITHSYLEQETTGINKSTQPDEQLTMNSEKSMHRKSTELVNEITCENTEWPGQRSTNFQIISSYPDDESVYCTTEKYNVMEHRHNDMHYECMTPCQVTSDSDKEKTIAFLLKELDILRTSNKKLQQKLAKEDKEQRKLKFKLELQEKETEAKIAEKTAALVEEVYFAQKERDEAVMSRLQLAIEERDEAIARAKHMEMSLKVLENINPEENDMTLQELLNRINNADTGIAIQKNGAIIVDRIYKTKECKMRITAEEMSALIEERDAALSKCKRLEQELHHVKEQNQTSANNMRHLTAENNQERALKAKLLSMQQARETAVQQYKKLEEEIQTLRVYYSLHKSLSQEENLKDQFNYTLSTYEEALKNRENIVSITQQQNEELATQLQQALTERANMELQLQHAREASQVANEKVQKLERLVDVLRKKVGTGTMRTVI
B5: Ras-related protein Rab-39B (Homo sapiens), Q96DA2 (parent)
chain: MEAIWLYQFRLIVIGDSTVGKSCLIRRFTEGRFAQVSDPTVGVDFFSRLVEIEPGKRIKLQIWDTAGQERFRSITRAYYRNSVGGLLLFDITNRRSFQNVHEWLEETKVHVQPYQIVFVLVGHKCDLDTQRQVTRHEAEKLAAAYGMKYIETSARDAINVEKAFTDLTRDIYELVKRGEITIQEGWEGVKSGFVPNVVHSSEEVVKSERRCLC
B6: KH domain-containing, RNA-binding, signal transduction-associated protein 2 (Homo sapiens), Q5VWX1 (parent)
chain: MEEEKYLPELMAEKDSLDPSFVHASRLLAEEIEKFQGSDGKKEDEEKKYLDVISNKNIKLSERVLIPVKQYPKFNFVGKLLGPRGNSLKRLQEETGAKMSILGKGSMRDKAKEEELRKSGEAKYAHLSDELHVLIEVFAPPGEAYSRMSHALEEIKKFLVPDYNDEIRQEQLRELSYLNGSEDSGRGRGIRGRGIRIAPTAPSRGRGGAIPPPPPPGRGVLTPRGSTVTRGALPVPPVARGVPTPRARGAPTVPGYRAPPPPAHEAYEEYGYDDGYGGEYDDQTYETYDNSYATQTQSVPEYYDYGHGVSEDAYDSYAPEEWATTRSSLKAPPQRSARGGYREHPYGRY

Variants of: B1
Settings: with kr108_human KRTAP10-8, P60410

Variant | effect of a mutation on the interaction
R8Q | with no effect

Variants of: B2
Settings: with pex3_human PEX3, P56589

Variant | effect of a mutation on the interaction
A85V | with no effect
L26I | with no effect
R207G | with no effect
L21V | with no effect
E6K | with no effect

Variants of: B3
Settings: with tri69_human TRIM69, Q86WT6

Variant | effect of a mutation on the interaction
A277T | with no effect

Variants of: B4
Settings: with mipo1_human MIPOL1, Q8TD10

Variant | effect of a mutation on the interaction
R159S | with no effect
T77A | with no effect

Variants of: B5
Settings: with rufy1_human RUFY1, Q96T51
Chain of rufy1_human RUFY1, Q96T51 (Q96T51 whole entry): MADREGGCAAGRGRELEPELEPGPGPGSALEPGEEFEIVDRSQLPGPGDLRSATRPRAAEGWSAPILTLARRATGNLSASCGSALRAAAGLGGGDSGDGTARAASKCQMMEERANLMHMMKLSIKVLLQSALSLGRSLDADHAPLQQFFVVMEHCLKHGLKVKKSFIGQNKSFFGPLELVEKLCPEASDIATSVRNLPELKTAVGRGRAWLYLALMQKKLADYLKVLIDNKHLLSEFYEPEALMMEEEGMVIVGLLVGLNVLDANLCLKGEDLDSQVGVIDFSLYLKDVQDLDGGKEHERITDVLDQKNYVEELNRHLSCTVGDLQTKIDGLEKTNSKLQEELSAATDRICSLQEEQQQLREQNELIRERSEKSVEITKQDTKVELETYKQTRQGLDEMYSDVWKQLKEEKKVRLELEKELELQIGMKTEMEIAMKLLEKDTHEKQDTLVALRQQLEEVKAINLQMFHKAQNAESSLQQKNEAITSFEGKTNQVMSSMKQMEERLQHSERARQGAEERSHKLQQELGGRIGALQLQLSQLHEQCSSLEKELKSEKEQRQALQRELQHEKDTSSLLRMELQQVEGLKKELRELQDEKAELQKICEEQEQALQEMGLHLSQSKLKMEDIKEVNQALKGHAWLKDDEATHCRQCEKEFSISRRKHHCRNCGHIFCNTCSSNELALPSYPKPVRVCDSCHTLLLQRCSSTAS

Variant | effect of a mutation on the interaction
R177S | disrupting interaction strength

Variants of: B6
Settings: with ews_human EWSR1, Q01844
Chain of ews_human EWSR1, Q01844 (Q01844 whole entry): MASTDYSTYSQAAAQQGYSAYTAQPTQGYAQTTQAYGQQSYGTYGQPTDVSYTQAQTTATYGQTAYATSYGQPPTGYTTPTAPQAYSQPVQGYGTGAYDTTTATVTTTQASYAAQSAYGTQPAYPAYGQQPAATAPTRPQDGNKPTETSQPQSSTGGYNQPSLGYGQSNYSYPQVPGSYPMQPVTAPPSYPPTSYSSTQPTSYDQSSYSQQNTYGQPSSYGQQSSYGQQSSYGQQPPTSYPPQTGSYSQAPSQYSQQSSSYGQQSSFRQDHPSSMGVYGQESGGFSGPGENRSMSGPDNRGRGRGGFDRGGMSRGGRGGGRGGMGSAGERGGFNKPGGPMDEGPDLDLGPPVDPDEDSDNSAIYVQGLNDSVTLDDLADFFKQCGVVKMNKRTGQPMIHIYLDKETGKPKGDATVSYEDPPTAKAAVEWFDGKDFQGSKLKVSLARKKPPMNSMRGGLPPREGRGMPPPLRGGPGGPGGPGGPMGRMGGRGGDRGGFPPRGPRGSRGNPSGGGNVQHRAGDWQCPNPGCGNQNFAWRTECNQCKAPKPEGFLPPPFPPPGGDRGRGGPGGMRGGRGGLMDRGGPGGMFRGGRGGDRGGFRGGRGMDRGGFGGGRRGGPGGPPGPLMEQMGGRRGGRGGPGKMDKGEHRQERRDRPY

Variant | effect of a mutation on the interaction
P333L | with no effect

Variants of: B6
Settings: with ptk6_human PTK6, Q13882

Variant | effect of a mutation on the interaction
P333L | with no effect

Variants of: B6
Settings: with hbaz_human HBZ

Variant | effect of a mutation on the interaction
P333L | with no effect
